From patent publication US20250154198A1, “PEPTIDE INHIBITORS OF INTERLEUKIN-23 RECEPTOR” (Zealand Pharma A/S, priority 2021, published 2025)
Read-outs that look alike come from different tables or passages of the source. *1 amine or outer side, *2 acyl side, *3 side chain or, on linkers, in order; H or OH if unused. Bridges are numbered along the chain shown (N, C = ends). Primed or numbered codes have the meaning given here. [ ]: non-standard residue; d: D form. 4‑Aminomethyl‑phenylacetyl = 4-aminomethyl-phenylacetyl unit, its amine closes the lactam, O=C(Cc1ccc(CN[*:1])cc1)[*:2]; 1,3‑dibromopropan‑2‑one = linker (CAS 816-39-7) joining two Cys as 1,3-dithio-propan-2-one bridge -SCH2C(=O)CH2S-; 1,3‑dibromopropan‑2‑one(3) = linker giving 1,3-dithio-propan-2-one bridge -SCH2C(=O)CH2S- between Cys; 4‑Aminomethyl‑phenylacetyl″ = N-terminal cap residue, O=C(Cc1ccc(CN[*:1])cc1)[*:2]; 2Nal = N[C@@H](Cc1ccc2ccccc2c1)C(=O)O; AEF = NCCOc1ccc(C[C@H](N)C(=O)O)cc1; 3Pal = N[C@@H](Cc1cccnc1)C(=O)O; αMeL = CC(C)C[C@](C)(N)C(=O)O; CH2COCH2 = O=C(C[*:1])C[*:2]; Dab = NCC[C@H](N)C(=O)O

Legend:
[1] = biological target: T1, human IL-23R endogenously expressed on DB cells (CRL-2289) (human, UniProt Q5VWK5 24-629); test: cell-based or functional assay
T1 sequence (looked up): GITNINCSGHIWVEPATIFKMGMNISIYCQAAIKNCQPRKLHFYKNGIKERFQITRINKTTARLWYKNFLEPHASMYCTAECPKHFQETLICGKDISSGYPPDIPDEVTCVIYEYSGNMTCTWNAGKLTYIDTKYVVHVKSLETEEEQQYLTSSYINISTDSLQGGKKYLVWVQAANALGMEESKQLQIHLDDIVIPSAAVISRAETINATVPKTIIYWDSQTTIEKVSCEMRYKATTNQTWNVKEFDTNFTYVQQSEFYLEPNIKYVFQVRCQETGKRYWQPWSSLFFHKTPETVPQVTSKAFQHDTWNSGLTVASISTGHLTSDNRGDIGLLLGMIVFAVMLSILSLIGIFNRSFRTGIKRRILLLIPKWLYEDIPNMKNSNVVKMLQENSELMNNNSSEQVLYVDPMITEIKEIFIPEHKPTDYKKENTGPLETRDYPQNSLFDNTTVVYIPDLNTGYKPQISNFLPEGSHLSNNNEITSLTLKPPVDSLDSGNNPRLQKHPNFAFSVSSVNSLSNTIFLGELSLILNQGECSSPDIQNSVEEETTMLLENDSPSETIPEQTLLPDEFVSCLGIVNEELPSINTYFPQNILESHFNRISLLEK

[2] = biological target: T1, human IL-23R endogenously expressed on …; test: cell-based or functional assay; remark: listed apart in the source
[3] = biological target: T2, Nluc-IL23R fusion protein (human, UniProt Q5VWK5 22-629); test: BRET displacement of TAMRA-labelled peptide, Nluc-IL23R membranes
T2 construct: range 22-629; Stably expressed in HEK293 cells; also called hIL-23R; human IL-23R fused to a Nanoluc luciferase enzyme; not shown: Nanoluc luciferase (Promega N1371 plasmid) at the N-terminus
T2 sequence (looked up): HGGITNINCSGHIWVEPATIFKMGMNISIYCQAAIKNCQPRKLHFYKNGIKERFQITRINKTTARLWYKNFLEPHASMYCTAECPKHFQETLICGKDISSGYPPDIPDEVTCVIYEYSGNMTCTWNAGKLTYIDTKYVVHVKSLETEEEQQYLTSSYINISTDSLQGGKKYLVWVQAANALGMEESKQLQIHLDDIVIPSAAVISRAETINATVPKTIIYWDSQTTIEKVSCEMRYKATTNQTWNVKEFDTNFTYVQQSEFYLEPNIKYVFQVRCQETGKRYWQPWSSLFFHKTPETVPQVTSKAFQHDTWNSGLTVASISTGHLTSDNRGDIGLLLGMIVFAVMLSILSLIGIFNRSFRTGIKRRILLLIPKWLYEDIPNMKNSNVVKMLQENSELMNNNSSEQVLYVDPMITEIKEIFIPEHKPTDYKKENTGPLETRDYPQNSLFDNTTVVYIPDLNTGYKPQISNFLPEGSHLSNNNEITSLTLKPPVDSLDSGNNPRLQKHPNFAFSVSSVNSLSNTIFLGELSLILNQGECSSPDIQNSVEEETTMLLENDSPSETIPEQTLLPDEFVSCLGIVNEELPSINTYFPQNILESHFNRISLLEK

[4] = biological target: T1, human IL-23R endogenously expressed on …; test: cell-based or functional assay; remark: listed apart in the source
[5] = biological target: T1, human IL-23R endogenously expressed on …; test: cell-based or functional assay; remark: listed apart in the source
[6] = biological target: T2, Nluc-IL23R fusion protein; test: BRET displacement of TAMRA-labelled peptide, Nluc-IL23R membranes; remark: listed apart in the source
Description: (§1) The plate was sealed with light impermeable plate seals, and incubated on a orbital shaker 400 rpm for 2 hours at room temperature. To determine the BRET ratio, the plate seal was removed and 25 μL of the Nanoluc substrate (Promega N1572) diluted 1:500 was added to each well and incubated for 1-2 minutes on an orbital shaker at 400 rpm. […] The BRET ratio was calculated as the fluorescence from the TAMRA/nanoluc bioluminescence. The IC₅₀ for each compound was determined by computer-aided curve fitting using a 4-parameter logistic (4PL) non-linear model.

[7] = biological target: T1, human IL-23R endogenously expressed on …; test: cell-based or functional assay; remark: listed apart in the source
[8] = biological target: T1, human IL-23R endogenously expressed on …; test: cell-based or functional assay; remark: listed apart in the source
[9] = biological target: T2, Nluc-IL23R fusion protein; test: BRET displacement of TAMRA-labelled peptide, Nluc-IL23R membranes; remark: listed apart in the source
Description: as §1

[10] = biological target: T1, human IL-23R endogenously expressed on …; test: cell-based or functional assay; remark: listed apart in the source
[11] = biological target: T2, Nluc-IL23R fusion protein; test: BRET displacement of TAMRA-labelled peptide, Nluc-IL23R membranes; remark: listed apart in the source
Description: as §1

[12] = biological target: T1, human IL-23R endogenously expressed on …; test: cell-based or functional assay; remark: listed apart in the source

B1: Compound 29 (peptide)
peptide: Ac-KSCWQC[AEF][2Nal]LER-NH2
modifications: lactam 1-10; linker 3-6 via CH2COCH2
SMILES: CC(=O)N[C@H]1CCCCNC(=O)CC[C@@H](C(=O)N[C@@H](CCCNC(=N)N)C(N)=O)NC(=O)[C@H](CC(C)C)NC(=O)[C@H](Cc2ccc3ccccc3c2)NC(=O)[C@H](Cc2ccc(OCCN)cc2)NC(=O)[C@@H]2CSCC(=O)CSC[C@H](NC(=O)[C@H](CO)NC1=O)C(=O)N[C@@H](Cc1c[nH]c3ccccc13)C(=O)N[C@@H](CCC(N)=O)C(=O)N2
IC50 (pSTAT3) [1]: 19.7 nM | IC50 (pSTAT3) [2]: 19.7 nM

B2: Compound 155 (peptide)
peptide: Ac-KTCWQC[AEF][2Nal][αMeL]E[Dab][3Pal]-NH2
modifications: lactam 1-10; linker 3-6 via 1,3‑dibromopropan‑2‑one(3)
IC50 (pSTAT3) [2]: 30.5 pM | Ki [3]: 0.00805 nM

B3: Compound 19 (peptide)
peptide: DKSCWQCWXLER
HELM: PEPTIDE1{[ac].D.K.S.C.W.Q.C.W.[O=C([C@H](Cc1ccc2ccccc2c1)N[*:1])[*:2]].L.E.R.[am]}|CHEM1{[O=C(C[*:1])C[*:2]]}$PEPTIDE1,PEPTIDE1,3:R3-12:R3|PEPTIDE1,CHEM1,5:R3-1:R1|PEPTIDE1,CHEM1,8:R3-1:R2$$$V2.0
SMILES: CC(=O)N[C@@H](CC(=O)O)C(=O)N[C@H]1CCCCNC(=O)CC[C@@H](C(=O)N[C@@H](CCCNC(=N)N)C(N)=O)NC(=O)[C@H](CC(C)C)NC(=O)[C@H](Cc2ccc3ccccc3c2)NC(=O)[C@H](Cc2c[nH]c3ccccc23)NC(=O)[C@@H]2CSCC(=O)CSC[C@H](NC(=O)[C@H](CO)NC1=O)C(=O)N[C@@H](Cc1c[nH]c3ccccc13)C(=O)N[C@@H](CCC(N)=O)C(=O)N2
IC50 (pSTAT3) [4]: 32.3 nM | IC50 (pSTAT3) [5]: 32.3 nM | IC50 (pSTAT3) [2]: 33.2 nM | Ki [6]: 6.33 nM

B4: Compound 122 (peptide)
peptide: [4‑Aminomethyl‑phenylacetyl″]SEWQ[Dab][AEF][2Nal][αMeL]E[Dab][3Pal]-NH2
modifications: lactam N-10, 3-6
SMILES: CC(C)C[C@]1(C)NC(=O)[C@H](Cc2ccc3ccccc3c2)NC(=O)[C@H](Cc2ccc(OCCN)cc2)NC(=O)[C@@H]2CCNC(=O)CC[C@H](NC(=O)[C@H](CO)NC(=O)Cc3ccc(cc3)CNC(=O)CC[C@@H](C(=O)N[C@@H](CCN)C(=O)N[C@@H](Cc3cccnc3)C(N)=O)NC1=O)C(=O)N[C@@H](Cc1c[nH]c3ccccc13)C(=O)N[C@@H](CCC(N)=O)C(=O)N2
IC50 (pSTAT3) [2]: 27.7 pM | Ki [3]: 0.00541 nM

B5: Compound 10 (peptide)
peptide: Ac-ESCWQCWWLKR-NH2
modifications: lactam 1-10; linker 3-6 via 1,3‑dibromopropan‑2‑one
IC50 (pSTAT3) [7]: 617 nM | IC50 (pSTAT3) [2]: 617 nM

B6: I4 (isomer 3) (peptide)
peptide: H-ECWLCYYRNCNCM-NH2
modifications: linker 5-10, 2-12 via 1,3‑dibromopropan‑2‑one
notes: Peptide of Heinis et al., 2020, synthesised and tested by the inventors
IC50 (pSTAT3) [8]: > 1 µM | IC50 (pSTAT3) [2]: > 1 µM | Ki [9]: > 1000 nM

B7: Compound 17 (peptide)
peptide: Ac-DESCWQCW[2Nal]LKR-NH2
modifications: lactam 2-11; linker 4-7 via CH2COCH2
IC50 (pSTAT3) [10]: 366 nM | IC50 (pSTAT3) [2]: 366 nM | Ki [11]: 70.7 nM | Ki [6]: 70.7 nM

B8: Compound 125 (peptide)
peptide: [4‑Aminomethyl‑phenylacetyl]SEWQ[Dab][AEF][2Nal][αMeL]E[Dab]-NH2
modifications: lactam N-10, 3-6
IC50 (pSTAT3) [2]: 21.2 nM | Ki [3]: 0.599 nM

B9: Compound 7 (peptide)
peptide: Ac-DKSCWQCWWLER-NH2
modifications: lactam 2-11; linker 4-7 via 1,3‑dibromopropan‑2‑one
IC50 (pSTAT3) [12]: 159 nM | IC50 (pSTAT3) [2]: 159 nM

B10: Compound 137 (peptide)
peptide: [4‑Aminomethyl‑phenylacetyl]SEWQ[Dab][AEF][2Nal][αMeL]E-{NH‑3‑aminopropanoyl}
modifications: lactam N-10, 3-6
IC50 (pSTAT3) [2]: 24.1 nM | Ki [3]: 0.518 nM

B11: Compound 21 (peptide)
peptide: Ac-DKSCWQCW[2Nal]LER-NH2
modifications: lactam 2-11; bridge 4-7; not fully specified (bridges); printed as [Ac]-DK(1c)SC(2e)WQC(2e)W[2-Nal]LE(1c)R-[NH2]
IC50 (pSTAT3) [5]: > 1 µM | IC50 (pSTAT3) [2]: > 1 µM

B12: Compound 22 (peptide)
peptide: Ac-DKSCWQCW[2Nal]LER-NH2
modifications: lactam 2-11; bridge 4-7; not fully specified (bridges); printed as [Ac]-DK(1c)SC(2f)WQC(2f)W[2-Nal]LE(1c)R-[NH2]
IC50 (pSTAT3) [5]: > 1 µM | IC50 (pSTAT3) [2]: > 1 µM

B13: Compound 20 (peptide)
peptide: Ac-DKSCWQCW[2Nal]LER-NH2
modifications: lactam 2-11; bridge 4-7; not fully specified (bridges); printed as [Ac]-DK(1c)SC(2d)WQC(2d)W[2-Nal]LE(1c)R-[NH2]
IC50 (pSTAT3) [5]: 79.2 nM | IC50 (pSTAT3) [2]: 79.2 nM

B14: Compound 16 (peptide)
peptide: DESCXQCWWLKR
HELM: PEPTIDE1{[ac].D.E.S.C.[Cc1cccc2c(C[C@H](N[*:1])C(=O)[*:2])c[nH]c12].Q.C.W.W.L.K.R.[am]}|CHEM1{[O=C(C[*:1])C[*:2]]}$PEPTIDE1,PEPTIDE1,3:R3-12:R3|PEPTIDE1,CHEM1,5:R3-1:R1|PEPTIDE1,CHEM1,8:R3-1:R2$$$V2.0
SMILES: CC(=O)N[C@@H](CC(=O)O)C(=O)N[C@H]1CCC(=O)NCCCC[C@@H](C(=O)N[C@@H](CCCNC(=N)N)C(N)=O)NC(=O)[C@H](CC(C)C)NC(=O)[C@H](Cc2c[nH]c3ccccc23)NC(=O)[C@H](Cc2c[nH]c3ccccc23)NC(=O)[C@@H]2CSCC(=O)CSC[C@H](NC(=O)[C@H](CO)NC1=O)C(=O)N[C@@H](Cc1c[nH]c3c(C)cccc13)C(=O)N[C@@H](CCC(N)=O)C(=O)N2
IC50 (pSTAT3) [10]: 461 nM | IC50 (pSTAT3) [2]: 461 nM
